# US10941182 (Amgen, dated 2021)
# Starred links: 1 amine or outer side, 2 acyl side, 3 side chain; linkers in the order of their positions; H or OH if unused. Non-standard residues stand in square brackets, D forms with d. *: point of attachment. AC4Abu = α-carboxy-4-aminobutyric acid, O=C(C(CCN[*:1])C(=O)[*:3])[*:2]; dBip = N[C@H](Cc1ccc(-c2ccccc2)cc1)C(=O)O; Oic = O=C(O)[C@@H]1C[C@@H]2CCCC[C@@H]2N1; Phe(4-Cl) = N[C@@H](Cc1ccc(Cl)cc1)C(=O)O; dPhe(4-Cl) = N[C@H](Cc1ccc(Cl)cc1)C(=O)O; Phe(4-I) = N[C@@H](Cc1ccc(I)cc1)C(=O)O; γGlu = O=C(O)[C@H](CCC(=O)[*:2])N[*:1]; HOOC(CH2)8CO = O=C(O)CCCCCCCCC(=O)*; NMeR = CN[C@@H](CCCNC(=N)N)C(=O)O; Tridecanoyl = CCCCCCCCCCCCC(=O)*; hArg = N=C(N)NCCCC[C@H](N)C(=O)O; Cha = N[C@@H](CC1CCCCC1)C(=O)O; NMeL = CN[C@@H](CC(C)C)C(=O)O; αMeL = CC(C)C[C@](C)(N)C(=O)O; β3hN = NC(=O)C[C@H](N)CC(=O)O; β3hL = CC(C)C[C@H](N)CC(=O)O; Nle = CCCC[C@H](N)C(=O)O; AEEA = NCCOCCOCC(=O)O; Aib = CC(C)(N)C(=O)O
# T1: human APJ receptor (human, UniProt P35414 1-380)
# T1 sequence (looked up): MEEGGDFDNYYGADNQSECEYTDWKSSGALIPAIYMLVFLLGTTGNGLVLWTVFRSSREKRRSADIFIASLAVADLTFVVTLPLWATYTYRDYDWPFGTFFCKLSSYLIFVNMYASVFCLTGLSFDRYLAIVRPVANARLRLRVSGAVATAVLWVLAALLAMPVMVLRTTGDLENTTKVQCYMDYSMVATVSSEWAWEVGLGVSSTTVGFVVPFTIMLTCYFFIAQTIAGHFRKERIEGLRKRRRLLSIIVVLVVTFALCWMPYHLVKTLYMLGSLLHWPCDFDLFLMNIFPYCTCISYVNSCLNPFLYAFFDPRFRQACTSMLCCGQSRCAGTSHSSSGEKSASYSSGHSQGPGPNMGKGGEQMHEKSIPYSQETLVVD
# T2: rat APJ receptor (rat, UniProt Q9JHG3 1-377)
# T2 sequence (looked up): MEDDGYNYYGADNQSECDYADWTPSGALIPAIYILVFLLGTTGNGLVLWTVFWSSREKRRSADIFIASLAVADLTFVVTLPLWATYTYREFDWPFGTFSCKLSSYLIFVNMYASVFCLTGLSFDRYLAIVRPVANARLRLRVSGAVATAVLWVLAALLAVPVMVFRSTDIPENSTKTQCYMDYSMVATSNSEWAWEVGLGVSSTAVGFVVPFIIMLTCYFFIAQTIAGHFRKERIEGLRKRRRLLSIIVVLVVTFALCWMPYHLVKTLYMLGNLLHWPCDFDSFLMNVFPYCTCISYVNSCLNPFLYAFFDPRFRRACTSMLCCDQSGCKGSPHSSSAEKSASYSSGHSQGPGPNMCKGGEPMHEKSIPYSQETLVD
# B1: SEQ ID NO: 299 (peptide)
# peptide: Tridecanoyl-[γGlu][AEEA][AEEA][β3hN][hArg]P[NMeR][Cha]SHKG[Oic][Nle]P[dPhe(4-Cl)]-OH
# SMILES: CCCCCCCCCCCCC(=O)N[C@@H](CCC(=O)NCCOCCOCC(=O)NCCOCCOCC(=O)N[C@@H](CC(N)=O)CC(=O)N[C@@H](CCCCNC(=N)N)C(=O)N1CCC[C@H]1C(=O)N(C)[C@@H](CCCNC(=N)N)C(=O)N[C@@H](CC1CCCCC1)C(=O)N[C@@H](CO)C(=O)N[C@@H](Cc1c[nH]cn1)C(=O)N[C@@H](CCCCN)C(=O)NCC(=O)N1[C@H](C(=O)N[C@@H](CCCC)C(=O)N2CCC[C@H]2C(=O)N[C@H](Cc2ccc(Cl)cc2)C(=O)O)C[C@@H]2CCCC[C@@H]21)C(=O)O
# B2: SEQ ID NO: 399 (peptide)
# peptide: XXXXQRPRLSHKGPXPF
# modifications: {TDA}[AC4Abu][AC4Abu][Aeea][Aeea]QRP[NMeArg]LSHKGP[Nle]P[4-Cl-F]{COOH}
# B3: SEQ ID NO: 462 (peptide)
# peptide: XXXQRPRLSHKGPXPF
# modifications: {TDA}[AC4Abu][AC4Abu][Aeea]QRP[NMeArg]LSHKGP[Nle]P[4-Cl-F]{COOH}
# B4: SEQ ID NO: 536 (peptide)
# peptide: Tridecanoyl-[AC4Abu][AEEA][AC4Abu][dQ]RP[NMeR][Cha]SHKG[Oic][Nle][Aib][Phe(4-Cl)]-OH
# SMILES: CCCCCCCCCCCCC(=O)NCCC(C(=O)O)C(=O)NCCOCCOCC(=O)NCCC(C(=O)O)C(=O)N[C@H](CCC(N)=O)C(=O)N[C@@H](CCCNC(=N)N)C(=O)N1CCC[C@H]1C(=O)N(C)[C@@H](CCCNC(=N)N)C(=O)N[C@@H](CC1CCCCC1)C(=O)N[C@@H](CO)C(=O)N[C@@H](Cc1c[nH]cn1)C(=O)N[C@@H](CCCCN)C(=O)NCC(=O)N1[C@H](C(=O)N[C@@H](CCCC)C(=O)NC(C)(C)C(=O)N[C@@H](Cc2ccc(Cl)cc2)C(=O)O)C[C@@H]2CCCC[C@@H]21
# B5: SEQ ID NO: 534 (peptide)
# peptide: Tridecanoyl-[AC4Abu][AC4Abu][AEEA][AEEA][dQ]RP[NMeR][Cha]SHKG[Oic][Nle][Aib][Phe(4-Cl)]-OH
# SMILES: CCCCCCCCCCCCC(=O)NCCC(C(=O)O)C(=O)NCCC(C(=O)O)C(=O)NCCOCCOCC(=O)NCCOCCOCC(=O)N[C@H](CCC(N)=O)C(=O)N[C@@H](CCCNC(=N)N)C(=O)N1CCC[C@H]1C(=O)N(C)[C@@H](CCCNC(=N)N)C(=O)N[C@@H](CC1CCCCC1)C(=O)N[C@@H](CO)C(=O)N[C@@H](Cc1c[nH]cn1)C(=O)N[C@@H](CCCCN)C(=O)NCC(=O)N1[C@H](C(=O)N[C@@H](CCCC)C(=O)NC(C)(C)C(=O)N[C@@H](Cc2ccc(Cl)cc2)C(=O)O)C[C@@H]2CCCC[C@@H]21
# B6: SEQ ID NO: 474 (peptide)
# peptide: {HOOC(CH2)8CO}-[γGlu][AEEA][AEEA][hArg]Q[hArg]P[NMeR][Cha]SHKG[Oic][Nle]P[Phe(4-Cl)]-OH
# SMILES: CCCC[C@H](NC(=O)[C@@H]1C[C@@H]2CCCC[C@@H]2N1C(=O)CNC(=O)[C@H](CCCCN)NC(=O)[C@H](Cc1c[nH]cn1)NC(=O)[C@H](CO)NC(=O)[C@H](CC1CCCCC1)NC(=O)[C@H](CCCNC(=N)N)N(C)C(=O)[C@@H]1CCCN1C(=O)[C@H](CCCCNC(=N)N)NC(=O)[C@H](CCC(N)=O)NC(=O)[C@H](CCCCNC(=N)N)NC(=O)COCCOCCNC(=O)COCCOCCNC(=O)CC[C@H](NC(=O)CCCCCCCCC(=O)O)C(=O)O)C(=O)N1CCC[C@H]1C(=O)N[C@@H](Cc1ccc(Cl)cc1)C(=O)O
# B7: SEQ ID NO: 533 (peptide)
# peptide: Tridecanoyl-[AC4Abu][AC4Abu][dQ]RP[NMeR][Cha]SHKG[Oic][Nle][Aib][Phe(4-Cl)]-OH
# SMILES: CCCCCCCCCCCCC(=O)NCCC(C(=O)O)C(=O)NCCC(C(=O)O)C(=O)N[C@H](CCC(N)=O)C(=O)N[C@@H](CCCNC(=N)N)C(=O)N1CCC[C@H]1C(=O)N(C)[C@@H](CCCNC(=N)N)C(=O)N[C@@H](CC1CCCCC1)C(=O)N[C@@H](CO)C(=O)N[C@@H](Cc1c[nH]cn1)C(=O)N[C@@H](CCCCN)C(=O)NCC(=O)N1[C@H](C(=O)N[C@@H](CCCC)C(=O)NC(C)(C)C(=O)N[C@@H](Cc2ccc(Cl)cc2)C(=O)O)C[C@@H]2CCCC[C@@H]21
# B8: SEQ ID NO: 300 (peptide)
# peptide: Tridecanoyl-[γGlu][AEEA][AEEA][β3hL][hArg]P[NMeR][Cha]SHKG[Oic][Nle]P[dPhe(4-Cl)]-OH
# SMILES: CCCCCCCCCCCCC(=O)N[C@@H](CCC(=O)NCCOCCOCC(=O)NCCOCCOCC(=O)N[C@H](CC(=O)N[C@@H](CCCCNC(=N)N)C(=O)N1CCC[C@H]1C(=O)N(C)[C@@H](CCCNC(=N)N)C(=O)N[C@@H](CC1CCCCC1)C(=O)N[C@@H](CO)C(=O)N[C@@H](Cc1c[nH]cn1)C(=O)N[C@@H](CCCCN)C(=O)NCC(=O)N1[C@H](C(=O)N[C@@H](CCCC)C(=O)N2CCC[C@H]2C(=O)N[C@H](Cc2ccc(Cl)cc2)C(=O)O)C[C@@H]2CCCC[C@@H]21)CC(C)C)C(=O)O
# B9: SEQ ID NO: 398 (peptide)
# peptide: XXXXXXXQRPRLSHKGPXPF
# modifications: {TDA}[AC4Abu][Aeea][Aeea][Aeea][Aeea][Aeea][Aeea]QRP[NMeArg]LSHKGP[Nle]P[4-Cl-F]{COOH}
# B10: SEQ ID NO: 535 (peptide)
# peptide: Tridecanoyl-[AC4Abu][AC4Abu][AEEA][dQ]RP[NMeR][Cha]SHKG[Oic][Nle][Aib][Phe(4-Cl)]-OH
# SMILES: CCCCCCCCCCCCC(=O)NCCC(C(=O)O)C(=O)NCCC(C(=O)O)C(=O)NCCOCCOCC(=O)N[C@H](CCC(N)=O)C(=O)N[C@@H](CCCNC(=N)N)C(=O)N1CCC[C@H]1C(=O)N(C)[C@@H](CCCNC(=N)N)C(=O)N[C@@H](CC1CCCCC1)C(=O)N[C@@H](CO)C(=O)N[C@@H](Cc1c[nH]cn1)C(=O)N[C@@H](CCCCN)C(=O)NCC(=O)N1[C@H](C(=O)N[C@@H](CCCC)C(=O)NC(C)(C)C(=O)N[C@@H](Cc2ccc(Cl)cc2)C(=O)O)C[C@@H]2CCCC[C@@H]21
# B11: SEQ ID NO: 421 (peptide)
# peptide: XXXLRPRLSHKGPXPF
# modifications: {TDA}[AC4Abu][Aeea][Aeea][BhLeu]RP[NMeArg]LSHKGP[Nle]P[4-Cl-F]{COOH}
# B12: SEQ ID NO: 375 (peptide)
# peptide: Tridecanoyl-[γGlu][AEEA][AEEA][αMeL]RP[NMeR][αMeL]SHKG[Oic][Nle]P[Phe(4-Cl)]-OH
# SMILES: CCCCCCCCCCCCC(=O)N[C@@H](CCC(=O)NCCOCCOCC(=O)NCCOCCOCC(=O)N[C@@](C)(CC(C)C)C(=O)N[C@@H](CCCNC(=N)N)C(=O)N1CCC[C@H]1C(=O)N(C)[C@@H](CCCNC(=N)N)C(=O)N[C@@](C)(CC(C)C)C(=O)N[C@@H](CO)C(=O)N[C@@H](Cc1c[nH]cn1)C(=O)N[C@@H](CCCCN)C(=O)NCC(=O)N1[C@H](C(=O)N[C@@H](CCCC)C(=O)N2CCC[C@H]2C(=O)N[C@@H](Cc2ccc(Cl)cc2)C(=O)O)C[C@@H]2CCCC[C@@H]21)C(=O)O
# B13: SEQ ID NO: 288 (peptide)
# peptide: {HOOC(CH2)8CO}-[γGlu][AEEA][AEEA]Q[hArg]P[dR][NMeL]SHKG[Oic][Phe(4-I)]P[dBip]-OH
# SMILES: CC(C)C[C@@H](C(=O)N[C@@H](CO)C(=O)N[C@@H](Cc1c[nH]cn1)C(=O)N[C@@H](CCCCN)C(=O)NCC(=O)N1[C@H](C(=O)N[C@@H](Cc2ccc(I)cc2)C(=O)N2CCC[C@H]2C(=O)N[C@H](Cc2ccc(-c3ccccc3)cc2)C(=O)O)C[C@@H]2CCCC[C@@H]21)N(C)C(=O)[C@@H](CCCNC(=N)N)NC(=O)[C@@H]1CCCN1C(=O)[C@H](CCCCNC(=N)N)NC(=O)[C@H](CCC(N)=O)NC(=O)COCCOCCNC(=O)COCCOCCNC(=O)CC[C@H](NC(=O)CCCCCCCCC(=O)O)C(=O)O
# B14: SEQ ID NO: 420 (peptide)
# peptide: Tridecanoyl-[γGlu][AEEA][AEEA][β3hN]RP[NMeR]LSHKGP[Nle]P[Phe(4-Cl)]-OH
# SMILES: CCCCCCCCCCCCC(=O)N[C@@H](CCC(=O)NCCOCCOCC(=O)NCCOCCOCC(=O)N[C@@H](CC(N)=O)CC(=O)N[C@@H](CCCNC(=N)N)C(=O)N1CCC[C@H]1C(=O)N(C)[C@@H](CCCNC(=N)N)C(=O)N[C@@H](CC(C)C)C(=O)N[C@@H](CO)C(=O)N[C@@H](Cc1c[nH]cn1)C(=O)N[C@@H](CCCCN)C(=O)NCC(=O)N1CCC[C@H]1C(=O)N[C@@H](CCCC)C(=O)N1CCC[C@H]1C(=O)N[C@@H](Cc1ccc(Cl)cc1)C(=O)O)C(=O)O
# B15: SEQ ID NO: 509 (peptide)
# peptide: XXXQRPRLSHKGPXPF
# modifications: {Sebacicacid}[AC4Abu][Aeea][Aeea]QRP[NMeArg]LSHKGP[Nle]P[4-Cl-F]{COOH}
# Target: T1, human APJ receptor
# Assay: cell-based or functional assay
row,Binder,EC50 Human APJ Receptor [nM]
1,B1,24.4
2,B2,0.0335
3,B3,0.0154
4,B4,0.592
5,B5,0.683
6,B6,1.14
7,B7,0.629
8,B8,41.5
9,B9,0.0573
10,B10,0.798
11,B11,0.0934
12,B12,0.155
13,B13,38.6
14,B14,0.0525
15,B15,0.179

# Target: T2, rat APJ receptor
# Assay: cell-based or functional assay
row,Binder,EC50 Rat APJ Receptor [nM]
1,B1,14.6
2,B2,0.104
3,B3,0.0793
4,B4,2.03
5,B5,3.75
6,B6,3.76
7,B7,3.88
8,B8,36.4
9,B9,0.116
10,B10,5.15
11,B11,0.285
12,B12,0.288
13,B13,38.5
14,B14,0.0838
15,B15,0.865
